Assay results from US20200317768A1 (published 2020).

T1: human FcγRIIb constitutively expressed on MDCK cells (human, UniProt P31994 43-310)
T1 sequence (looked up): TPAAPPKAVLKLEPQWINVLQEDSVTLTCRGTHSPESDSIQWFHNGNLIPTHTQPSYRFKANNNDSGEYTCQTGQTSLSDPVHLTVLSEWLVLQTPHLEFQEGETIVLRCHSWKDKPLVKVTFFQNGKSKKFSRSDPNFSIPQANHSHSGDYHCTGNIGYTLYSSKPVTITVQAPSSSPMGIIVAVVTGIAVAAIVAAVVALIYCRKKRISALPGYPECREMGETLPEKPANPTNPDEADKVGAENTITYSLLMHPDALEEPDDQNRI

T2: soluble mouse FcγRII, His-tagged (mouse, UniProt P08101 30-210, limits assumed)
T2 construct: Captured on the chip by an anti-His antibody
T2 sequence (looked up): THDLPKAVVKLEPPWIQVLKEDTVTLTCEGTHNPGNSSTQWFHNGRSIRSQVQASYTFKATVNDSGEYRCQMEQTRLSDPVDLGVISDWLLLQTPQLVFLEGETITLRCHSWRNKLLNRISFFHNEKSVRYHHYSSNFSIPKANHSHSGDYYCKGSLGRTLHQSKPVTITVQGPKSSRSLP


Experiments:
[1] = target: T1, human FcγRIIb constitutively expressed …; experiment: cell-based or functional assay
[2] = target: T2, soluble mouse FcγRII, His-tagged; experiment: SPR, mouse FcgRII-His captured, antigen-antibody complex injected, pH7.4, 25C

| Binder | celluar uptake [1] | biacore IC binding [2] |
| --- | --- | --- |
| M103205H795-P1548m/M103202L889-SK1 (antibody, human IgG1, kappa) heavy: QVTLKESGPVLVKPTETLTLTCTVSGIDLSHDDISWVRQAPGKGLEWVGIISYAGSTYYASWAKGRLTISKDTSKNQVVLTMTNMDPVDTATYYCARGVPAYSHGGDLWGQGTLVTVSSASTKGPSVFPLAPSSKSTSGGTAALGCLVKDYFPEPVTVSWNSGALTSGVHTFPAVLQSSGLYSLSSVVTVPSSSLGTQTYICNVNHKPSNTKVDKKVEPKSCDKTHTCPPCPAPELLGGPSVFLFPPKPKDTLMISRTPEVTCVVVDVSHEDPEVKFNWYVDGVEVHNAKTKPREEQYNSTYRVVSVLTVLHRDWLNGKEYKCKVSNKALPAPIEKTISKAKGQPREPQVYTLPPSREEMTKNQVSLTCLVKGFYPSDIAVEWESNRQPENNYKTTPPVLDSRGSFFLYSKLTVDKSRWQQGNVFSCSVMHEALHNHYTQKSLSLSP light: DIVMTQSPATLSLSPGERATLSCTSSQSVYHANWLSWFQQKPGQPPKLLIYWASTLAYGVPSRFSGSGSGTDFTLTISSLQPEDAATYYCAGGYGGGRYAFGQGTKVEIKRTVAAPSVFIFPPSDEQLKSGTASVVCLLNNFYPREAKVQWKVDNALQSGNSQESVTEQDSKDSTYSLSSTLTLSKADYEKHKVYACEVTHQGLSSPVTKSFNRGEC | 2.3 relative to SG1 (=1.00) | 1.37 relative to SG1 (=1.00) |
| M103205H795-P1549m/M103202L889-SK1 (antibody, human IgG1, kappa) heavy: QVTLKESGPVLVKPTETLTLTCTVSGIDLSHDDISWVRQAPGKGLEWVGIISYAGSTYYASWAKGRLTISKDTSKNQVVLTMTNMDPVDTATYYCARGVPAYSHGGDLWGQGTLVTVSSASTKGPSVFPLAPSSKSTSGGTAALGCLVKDYFPEPVTVSWNSGALTSGVHTFPAVLQSSGLYSLSSVVTVPSSSLGTQTYICNVNHKPSNTKVDKKVEPKSCDKTHTCPPCPAPELLGGPSVFLFPPKPKDTLMISRTPEVTCVVVDVSHEDPEVKFNWYVDGVEVHNAKTKPREEQYNSTYRVVSVLTVLHRDWLNGKEYKCKVSNKALPAPIEKTISKAKGQPREPQVYTLPPSREEMTKNQVSLTCLVKGFYPSDIAVEWESNRQPENNYKTTPPVLDSDRSFFLYSKLTVDKSRWQQGNVFSCSVMHEALHNHYTQKSLSLSP light: DIVMTQSPATLSLSPGERATLSCTSSQSVYHANWLSWFQQKPGQPPKLLIYWASTLAYGVPSRFSGSGSGTDFTLTISSLQPEDAATYYCAGGYGGGRYAFGQGTKVEIKRTVAAPSVFIFPPSDEQLKSGTASVVCLLNNFYPREAKVQWKVDNALQSGNSQESVTEQDSKDSTYSLSSTLTLSKADYEKHKVYACEVTHQGLSSPVTKSFNRGEC | 2.03 relative to SG1 (=1.00) | 1.22 relative to SG1 (=1.00) |
| M103205H795-P1550m/M103202L889-SK1 (antibody, human IgG1, kappa) heavy: QVTLKESGPVLVKPTETLTLTCTVSGIDLSHDDISWVRQAPGKGLEWVGIISYAGSTYYASWAKGRLTISKDTSKNQVVLTMTNMDPVDTATYYCARGVPAYSHGGDLWGQGTLVTVSSASTKGPSVFPLAPSSKSTSGGTAALGCLVKDYFPEPVTVSWNSGALTSGVHTFPAVLQSSGLYSLSSVVTVPSSSLGTQTYICNVNHKPSNTKVDKKVEPKSCDKTHTCPPCPAPELLGGPSVFLFPPKPKDTLMISRTPEVTCVVVDVSHEDPEVKFNWYVDGVEVHNAKTKPREEQYNSTYRVVSVLTVLHRDWLNGKEYKCKVSNKALPAPIEKTISKAKGQPREPQVYTLPPSREEMTKNQVSLTCLVKGFYPSDIAVEWESNGQPRNNYKTTPPVLDSRGSFFLYSKLTVDKSRWQQGNVFSCSVMHEALHNHYTQKSLSLSP light: DIVMTQSPATLSLSPGERATLSCTSSQSVYHANWLSWFQQKPGQPPKLLIYWASTLAYGVPSRFSGSGSGTDFTLTISSLQPEDAATYYCAGGYGGGRYAFGQGTKVEIKRTVAAPSVFIFPPSDEQLKSGTASVVCLLNNFYPREAKVQWKVDNALQSGNSQESVTEQDSKDSTYSLSSTLTLSKADYEKHKVYACEVTHQGLSSPVTKSFNRGEC | 6.43 relative to SG1 (=1.00) | 1.63 relative to SG1 (=1.00) |
| M103205H795-P1551m/M103202L889-SK1 (antibody, human IgG1, kappa) heavy: QVTLKESGPVLVKPTETLTLTCTVSGIDLSHDDISWVRQAPGKGLEWVGIISYAGSTYYASWAKGRLTISKDTSKNQVVLTMTNMDPVDTATYYCARGVPAYSHGGDLWGQGTLVTVSSASTKGPSVFPLAPSSKSTSGGTAALGCLVKDYFPEPVTVSWNSGALTSGVHTFPAVLQSSGLYSLSSVVTVPSSSLGTQTYICNVNHKPSNTKVDKKVEPKSCDKTHTCPPCPAPELLGGPSVFLFPPKPKDTLMISRTPEVTCVVVDVSHEDPEVKFNWYVDGVEVHNAKTKPREEQYNSTYRVVSVLTVLHRDWLNGKEYKCKVSNKALPAPIEKTISKAKGQPREPQVYTLPPSREEMTKNQVSLTCLVKGFYPSDIAVEWESNGQPRNNYKTTPPVLDSDRSFFLYSKLTVDKSRWQQGNVFSCSVMHEALHNHYTQKSLSLSP light: DIVMTQSPATLSLSPGERATLSCTSSQSVYHANWLSWFQQKPGQPPKLLIYWASTLAYGVPSRFSGSGSGTDFTLTISSLQPEDAATYYCAGGYGGGRYAFGQGTKVEIKRTVAAPSVFIFPPSDEQLKSGTASVVCLLNNFYPREAKVQWKVDNALQSGNSQESVTEQDSKDSTYSLSSTLTLSKADYEKHKVYACEVTHQGLSSPVTKSFNRGEC | 2.91 relative to SG1 (=1.00) | 1.33 relative to SG1 (=1.00) |

Other lines, results leading:

| celluar uptake [1] | biacore IC binding [2] | Binder |
| --- | --- | --- |
| 4.44 relative to SG1 (=1.00) | 2.19 relative to SG1 (=1.00) | M103205H795-P1552m/M103202L889-SK1 (antibody, human IgG1, kappa) heavy: QVTLKESGPVLVKPTETLTLTCTVSGIDLSHDDISWVRQAPGKGLEWVGIISYAGSTYYASWAKGRLTISKDTSKNQVVLTMTNMDPVDTATYYCARGVPAYSHGGDLWGQGTLVTVSSASTKGPSVFPLAPSSKSTSGGTAALGCLVKDYFPEPVTVSWNSGALTSGVHTFPAVLQSSGLYSLSSVVTVPSSSLGTQTYICNVNHKPSNTKVDKKVEPKSCDKTHTCPPCPAPELLGGPSVFLFPPKPKDTLMISRTPEVTCVVVDVSHEDPEVKFNWYVDGVEVHNAKTKPREEQYNSTYRVVSVLTVLHQDWLNGKEYKCKVSNKALPAPIEKTISKAKGQPREPQVYTLPPSREEMTKNQVSLTCLVKGFYPSDIAVEWESNRQPENNYKTTPPVLDSRGSFFLYSKLTVKKSRWQQGNVFSCSVMHEALHNHYTQKSLSLSP light: DIVMTQSPATLSLSPGERATLSCTSSQSVYHANWLSWFQQKPGQPPKLLIYWASTLAYGVPSRFSGSGSGTDFTLTISSLQPEDAATYYCAGGYGGGRYAFGQGTKVEIKRTVAAPSVFIFPPSDEQLKSGTASVVCLLNNFYPREAKVQWKVDNALQSGNSQESVTEQDSKDSTYSLSSTLTLSKADYEKHKVYACEVTHQGLSSPVTKSFNRGEC |
| 4.42 relative to SG1 (=1.00) | 1.64 relative to SG1 (=1.00) | M103205H795-SG141/M103202L889-SK1 (antibody, human IgG1, kappa) heavy: not shown light: DIVMTQSPATLSLSPGERATLSCTSSQSVYHANWLSWFQQKPGQPPKLLIYWASTLAYGVPSRFSGSGSGTDFTLTISSLQPEDAATYYCAGGYGGGRYAFGQGTKVEIKRTVAAPSVFIFPPSDEQLKSGTASVVCLLNNFYPREAKVQWKVDNALQSGNSQESVTEQDSKDSTYSLSSTLTLSKADYEKHKVYACEVTHQGLSSPVTKSFNRGEC |
| 2.86 relative to SG1 (=1.00) | 1.47 relative to SG1 (=1.00) | M103205H795-P1553m/M103202L889-SK1 (antibody, human IgG1, kappa) heavy: QVTLKESGPVLVKPTETLTLTCTVSGIDLSHDDISWVRQAPGKGLEWVGIISYAGSTYYASWAKGRLTISKDTSKNQVVLTMTNMDPVDTATYYCARGVPAYSHGGDLWGQGTLVTVSSASTKGPSVFPLAPSSKSTSGGTAALGCLVKDYFPEPVTVSWNSGALTSGVHTFPAVLQSSGLYSLSSVVTVPSSSLGTQTYICNVNHKPSNTKVDKKVEPKSCDKTHTCPPCPAPELLGGPSVFLFPPKPKDTLMISRTPEVTCVVVDVSHEDPEVKFNWYVDGVEVHNAKTKPREEQYNSTYRVVSVLTVLHQDWLNGKEYKCKVSNKALPAPIEKTISKAKGQPREPQVYTLPPSREEMTKNQVSLTCLVKGFYPSDIAVEWESNRQPENNYKTTPPVLDSDRSFFLYSKLTVKKSRWQQGNVFSCSVMHEALHNHYTQKSLSLSP light: DIVMTQSPATLSLSPGERATLSCTSSQSVYHANWLSWFQQKPGQPPKLLIYWASTLAYGVPSRFSGSGSGTDFTLTISSLQPEDAATYYCAGGYGGGRYAFGQGTKVEIKRTVAAPSVFIFPPSDEQLKSGTASVVCLLNNFYPREAKVQWKVDNALQSGNSQESVTEQDSKDSTYSLSSTLTLSKADYEKHKVYACEVTHQGLSSPVTKSFNRGEC |
| 3.71 relative to SG1 (=1.00) | 2.01 relative to SG1 (=1.00) | M103205H795-P1555m/M103202L889-SK1 (antibody, human IgG1, kappa) heavy: QVTLKESGPVLVKPTETLTLTCTVSGIDLSHDDISWVRQAPGKGLEWVGIISYAGSTYYASWAKGRLTISKDTSKNQVVLTMTNMDPVDTATYYCARGVPAYSHGGDLWGQGTLVTVSSASTKGPSVFPLAPSSKSTSGGTAALGCLVKDYFPEPVTVSWNSGALTSGVHTFPAVLQSSGLYSLSSVVTVPSSSLGTQTYICNVNHKPSNTKVDKKVEPKSCDKTHTCPPCPAPELLGGPSVFLFPPKPKDTLMISRTPEVTCVVVDVSHEDPEVKFNWYVDGVEVHNAKTKPREEQYNSTYRVVSVLTVLHQDWLNGKEYKCKVSNKALPAPIEKTISKAKGQPREPQVYTLPPSREEMTKNQVSLTCLVKGFYPSDIAVEWESNGQPRNNYKTTPPVLDSDRSFFLYSKLTVKKSRWQQGNVFSCSVMHEALHNHYTQKSLSLSP light: DIVMTQSPATLSLSPGERATLSCTSSQSVYHANWLSWFQQKPGQPPKLLIYWASTLAYGVPSRFSGSGSGTDFTLTISSLQPEDAATYYCAGGYGGGRYAFGQGTKVEIKRTVAAPSVFIFPPSDEQLKSGTASVVCLLNNFYPREAKVQWKVDNALQSGNSQESVTEQDSKDSTYSLSSTLTLSKADYEKHKVYACEVTHQGLSSPVTKSFNRGEC |
